Experimental data taken from the Human Domainome abundance scans (Beltran et al. 2025).
± gives the uncertainty stated by the source.

B1: Tripartite motif-containing protein 44, residues 174 to 218; numbered along this chain, Q96DX7 (parent)
chain: VAKRKCPDHGLDLSTYCQEDRQLICVLCPVIGAHQGHQLSTLDEA

Variants of: B1
Assay: abundance fitness (aPCA) (normalised: wild type 0, dead -1); higher = more abundant; growth selection in yeast, the domain comes from the species named
Conditions: Homo sapiens

Variant | abundance fitness
VAKRKCPDQGLDLSTYCQEDRQLICVLCPVIGAHQGHQLSTLDEA [H9Q] | -0.964 ± 0.058
VAKRKCPDKGLDLSTYCQEDRQLICVLCPVIGAHQGHQLSTLDEA [H9K] | -0.995 ± 0.082
VAKRKCPDRGLDLSTYCQEDRQLICVLCPVIGAHQGHQLSTLDEA [H9R] | -0.975 ± 0.041
VAKRKCPDGGLDLSTYCQEDRQLICVLCPVIGAHQGHQLSTLDEA [H9G] | -0.91 ± 0.033
VAKRKCPDPGLDLSTYCQEDRQLICVLCPVIGAHQGHQLSTLDEA [H9P] | -1.15 ± 0.092
VAKRKCPDWGLDLSTYCQEDRQLICVLCPVIGAHQGHQLSTLDEA [H9W] | -1.03 ± 0.058
VAKRKCPDTGLDLSTYCQEDRQLICVLCPVIGAHQGHQLSTLDEA [H9T] | -0.919 ± 0.07
VAKRKCPDIGLDLSTYCQEDRQLICVLCPVIGAHQGHQLSTLDEA [H9I] | -0.891 ± 0.22
VAKRKCPDMGLDLSTYCQEDRQLICVLCPVIGAHQGHQLSTLDEA [H9M] | -0.901 ± 0.072
VAKRKCPDDGLDLSTYCQEDRQLICVLCPVIGAHQGHQLSTLDEA [H9D] | -0.981 ± 0.091
VAKRKCPDSGLDLSTYCQEDRQLICVLCPVIGAHQGHQLSTLDEA [H9S] | -1.02 ± 0.067
VAKRKCPDFGLDLSTYCQEDRQLICVLCPVIGAHQGHQLSTLDEA [H9F] | -1.24 ± 0.16
VAKRKCPDNGLDLSTYCQEDRQLICVLCPVIGAHQGHQLSTLDEA [H9N] | -0.838 ± 0.1
VAKRKCPDEGLDLSTYCQEDRQLICVLCPVIGAHQGHQLSTLDEA [H9E] | -0.863 ± 0.046
VAKRKCPDYGLDLSTYCQEDRQLICVLCPVIGAHQGHQLSTLDEA [H9Y] | -0.791 ± 0.076
VAKRKCPDCGLDLSTYCQEDRQLICVLCPVIGAHQGHQLSTLDEA [H9C] | -0.103 ± 0.032
VAKRKCPDVGLDLSTYCQEDRQLICVLCPVIGAHQGHQLSTLDEA [H9V] | -0.986 ± 0.048
VAKRKCPDAGLDLSTYCQEDRQLICVLCPVIGAHQGHQLSTLDEA [H9A] | -1 ± 0.052
VAKRKCCDHGLDLSTYCQEDRQLICVLCPVIGAHQGHQLSTLDEA [P7C] | -0.141 ± 0.049

Variant | abundance fitness
VAKRKCKDHGLDLSTYCQEDRQLICVLCPVIGAHQGHQLSTLDEA [P7K] | -0.342 ± 0.04
VAKRKCLDHGLDLSTYCQEDRQLICVLCPVIGAHQGHQLSTLDEA [P7L] | -0.124 ± 0.032
VAKRKCGDHGLDLSTYCQEDRQLICVLCPVIGAHQGHQLSTLDEA [P7G] | -0.169 ± 0.027
VAKRKCTDHGLDLSTYCQEDRQLICVLCPVIGAHQGHQLSTLDEA [P7T] | 0.065 ± 0.045
VAKRKCWDHGLDLSTYCQEDRQLICVLCPVIGAHQGHQLSTLDEA [P7W] | -0.191 ± 0.035
VAKRKCRDHGLDLSTYCQEDRQLICVLCPVIGAHQGHQLSTLDEA [P7R] | -0.168 ± 0.029
VAKRKCNDHGLDLSTYCQEDRQLICVLCPVIGAHQGHQLSTLDEA [P7N] | -0.565 ± 0.067
VAKRKCDDHGLDLSTYCQEDRQLICVLCPVIGAHQGHQLSTLDEA [P7D] | -0.481 ± 0.059
VAKRKCVDHGLDLSTYCQEDRQLICVLCPVIGAHQGHQLSTLDEA [P7V] | -0.25 ± 0.029
VAKRKCEDHGLDLSTYCQEDRQLICVLCPVIGAHQGHQLSTLDEA [P7E] | -0.446 ± 0.033
VAKRKCQDHGLDLSTYCQEDRQLICVLCPVIGAHQGHQLSTLDEA [P7Q] | 0.038 ± 0.039
VAKRKCIDHGLDLSTYCQEDRQLICVLCPVIGAHQGHQLSTLDEA [P7I] | -0.092 ± 0.055
VAKRKCMDHGLDLSTYCQEDRQLICVLCPVIGAHQGHQLSTLDEA [P7M] | -0.036 ± 0.037
VAKRKCSDHGLDLSTYCQEDRQLICVLCPVIGAHQGHQLSTLDEA [P7S] | -0.089 ± 0.039
VAKRKCYDHGLDLSTYCQEDRQLICVLCPVIGAHQGHQLSTLDEA [P7Y] | -0.226 ± 0.048
VAKRKCADHGLDLSTYCQEDRQLICVLCPVIGAHQGHQLSTLDEA [P7A] | -0.013 ± 0.029
VAKRKCFDHGLDLSTYCQEDRQLICVLCPVIGAHQGHQLSTLDEA [P7F] | -0.321 ± 0.16
VAKRKCPDHGLLLSTYCQEDRQLICVLCPVIGAHQGHQLSTLDEA [D12L] | -0.166 ± 0.035
VAKRKCPDHGLELSTYCQEDRQLICVLCPVIGAHQGHQLSTLDEA [D12E] | 0.003 ± 0.035

Variant | abundance fitness
VAKRKCPDHGLHLSTYCQEDRQLICVLCPVIGAHQGHQLSTLDEA [D12H] | 0.017 ± 0.17
VAKRKCPDHGLTLSTYCQEDRQLICVLCPVIGAHQGHQLSTLDEA [D12T] | -0.071 ± 0.038
VAKRKCPDHGLPLSTYCQEDRQLICVLCPVIGAHQGHQLSTLDEA [D12P] | -0.033 ± 0.048
VAKRKCPDHGLRLSTYCQEDRQLICVLCPVIGAHQGHQLSTLDEA [D12R] | -0.214 ± 0.032
VAKRKCPDHGLWLSTYCQEDRQLICVLCPVIGAHQGHQLSTLDEA [D12W] | -0.141 ± 0.033
VAKRKCPDHGLFLSTYCQEDRQLICVLCPVIGAHQGHQLSTLDEA [D12F] | -0.15 ± 0.041
VAKRKCPDHGLMLSTYCQEDRQLICVLCPVIGAHQGHQLSTLDEA [D12M] | -0.048 ± 0.048
VAKRKCPDHGLKLSTYCQEDRQLICVLCPVIGAHQGHQLSTLDEA [D12K] | -0.082 ± 0.041
VAKRKCPDHGLQLSTYCQEDRQLICVLCPVIGAHQGHQLSTLDEA [D12Q] | -0.116 ± 0.044
VAKRKCPDHGLGLSTYCQEDRQLICVLCPVIGAHQGHQLSTLDEA [D12G] | -0.098 ± 0.031
VAKRKCPDHGLSLSTYCQEDRQLICVLCPVIGAHQGHQLSTLDEA [D12S] | -0.113 ± 0.029
VAKRKCPDHGLYLSTYCQEDRQLICVLCPVIGAHQGHQLSTLDEA [D12Y] | -0.132 ± 0.039
VAKRKCPDHGLNLSTYCQEDRQLICVLCPVIGAHQGHQLSTLDEA [D12N] | -0.072 ± 0.05
VAKRKCPDHGLALSTYCQEDRQLICVLCPVIGAHQGHQLSTLDEA [D12A] | -0.117 ± 0.032
VAKRKCPDHGLILSTYCQEDRQLICVLCPVIGAHQGHQLSTLDEA [D12I] | -0.016 ± 0.071
VAKRKCPDHGLCLSTYCQEDRQLICVLCPVIGAHQGHQLSTLDEA [D12C] | -0.366 ± 0.057
VAKRKCPSHGLDLSTYCQEDRQLICVLCPVIGAHQGHQLSTLDEA [D8S] | -0.03 ± 0.031
VAKRKCPTHGLDLSTYCQEDRQLICVLCPVIGAHQGHQLSTLDEA [D8T] | 0.051 ± 0.032
VAKRKCPMHGLDLSTYCQEDRQLICVLCPVIGAHQGHQLSTLDEA [D8M] | 0.057 ± 0.034
